Source: paper PMC4835091, “Characterization of the FtsZ C-Terminal Variable (CTV) Region in Z-Ring Assembly and Interaction with the Z-Ring Stabilizer ZapD in E. coli Cytokinesis” (PLoS ONE, 2016)
Positions count from the first letter of the chain named.

How the values were obtained:
Test in all cases: co-sedimentation; FtsZ or CTV mutant 5 μM with ZapD 1 or 5 μM in 50 mM K-MOPS pH 6.5, 50 mM KCl, 2.5 mM MgCl2, 3 μM BSA, 1 mM GTP, room temperature; TLA100.2, 80,000 rpm, 10 min; ZapD in the pellet by SDS-PAGE
Settings in all cases: both partners purified
FtsZ(DQAK) (purified) = target: T1, FtsZ(DQAK) (purified) (E. coli, UniProt P0A9A6 1-383, CTV KQAD replaced by DQAK)
T1 construct: FtsZ of E. coli with the native CTV KQAD replaced by DQAK (net-neutral); pKHH9, pET-21b(+); also called net-neutral CTV mutant; source: E. coli C41(DE3), purified (25% saturated ammonium sulfate cut)
T1 sequence (looked up): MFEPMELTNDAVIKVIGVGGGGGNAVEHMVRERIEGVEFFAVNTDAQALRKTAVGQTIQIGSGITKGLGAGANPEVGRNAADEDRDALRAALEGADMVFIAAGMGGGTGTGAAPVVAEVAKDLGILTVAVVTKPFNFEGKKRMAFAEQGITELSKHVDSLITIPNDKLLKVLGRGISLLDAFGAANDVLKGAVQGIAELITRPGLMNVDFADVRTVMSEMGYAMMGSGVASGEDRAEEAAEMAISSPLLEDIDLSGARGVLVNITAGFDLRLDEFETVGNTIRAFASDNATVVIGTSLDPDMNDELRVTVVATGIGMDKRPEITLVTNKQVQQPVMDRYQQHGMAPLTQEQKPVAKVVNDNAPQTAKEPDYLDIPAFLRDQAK

FtsZ(QQQQ) (purified) = target: T2, FtsZ(QQQQ) (purified) (E. coli, UniProt P0A9A6 1-383, CTV KQAD replaced by QQQQ)
T2 construct: FtsZ of E. coli with the native CTV KQAD replaced by QQQQ (net-neutral); pLT1, pET-21b(+); also called net-neutral CTV mutant; source: E. coli C41(DE3), purified (25% saturated ammonium sulfate cut)
T2 sequence (looked up): T1 sequence (looked up) with D380Q, A382Q, K383Q

FtsZ(KQAK) (purified) = target: T3, FtsZ(KQAK) (purified) (E. coli, UniProt P0A9A6 1-383, CTV KQAD replaced by KQAK)
T3 construct: FtsZ of E. coli with the native CTV KQAD replaced by KQAK (net-positive); pKHH8, pET-21b(+); also called net-positive CTV mutant; source: E. coli C41(DE3), purified (25% saturated ammonium sulfate cut)
T3 sequence (looked up): T1 sequence (looked up) with D380K

FtsZ(RQAR) (purified) = target: T4, FtsZ(RQAR) (purified) (E. coli, UniProt P0A9A6 1-383, CTV KQAD replaced by RQAR)
T4 construct: FtsZ of E. coli with the native CTV KQAD replaced by RQAR (net-positive); pAM3, pET-21b(+); also called net-positive CTV mutant; source: E. coli C41(DE3), purified (25% saturated ammonium sulfate cut)
T4 sequence (looked up): T1 sequence (looked up) with D380R, K383R

binding result (FtsZ(DQAK) (purified)): binds
binding result (FtsZ(QQQQ) (purified)): binds
binding result (FtsZ(KQAK) (purified)): binds
binding result (FtsZ(RQAR) (purified)): binds
B1: ZapD (purified) (natural protein, E. coli, UniProt P36680 1-247, looked up)
chain: MQTQVLFEHPLNEKMRTWLRIEFLIQQLTVNLPIVDHAGALHFFRNVSELLDVFERGEVRTELLKELDRQQRKLQTWIGVPGVDQSRIEALIQQLKAAGSVLISAPRIGQFLREDRLIALVRQRLSIPGGCCSFDLPTLHIWLHLPQAQRDSQVETWIASLNPLTQALTMVLDLIRQSAPFRKQTSLNGFYQDNGGDADLLRLNLSLDSQLYPQISGHKSRFAIRFMPLDTENGQVPERLDFELACC
notes: ZapD, Z-ring stabilizer of E. coli; also called purified ZapD; pET28b-His10-Smt3-ZapD
